B1: Ribonuclease, P00648 (parent)
chain: MMKMEGIALKKRLSWISVCLLVLVSAAGMLFSTAAKTETSSHKAHTEAQVINTFDGVADYLQTYHKLPDNYITKSEAQALGWVASKGNLADVAPGKSIGGDIFSNREGKLPGKSGRTWREADINYTSGFRNSDRILYSSDWLIYKTTDHYQTFTKIR

Variants of: B1
Settings: Bacillus amyloliquefaciens; pH 6.3; 25 °C; Urea; Fluorescence; MES 50 mM; NaCl 0.15 M; reversible: yes; structure 1BNI; whole UniProt chain shown

Variant | ddG of mutation (higher = less stable) [kcal/mol] | denaturant m value [kcal/mol/M] | denaturant midpoint (higher = more stable) [M] | unfolding free energy [kcal/mol]
I123T | 2.69 | 1.87 | 3.26 | 6.1
I51A I123V | 1.86 | 1.92 | 3.61 | 6.93
I51A Y125F | 2.53 | 1.95 | 3.21 | 6.26
I51A I98V | 2.63 | 2.11 | 2.92 | 6.16
